Experimental data taken from publication PMC11323569 (mBio, 2024).

Key:
[1] = biological target: PrgKEC, extracytoplasmic region of PrgK (residues 273-871) (Enterococcus faecalis (plasmid pCF10)) (UniProt Q5G3P4); assay: […], pH 5.0, 100 mM NaCl; […]
non-reducing SDS-PAGE = biological target: the molecule itself; assay: non-reducing SDS-PAGE
[2] = biological target: the molecule itself; assay: […], pH 5.0, 100 mM NaCl; […]

PrgL_(32-208), extracellular domain of PrgL (domain or fragment)
stoichiometry N (PrgL32-208 per PrgKEC (1:1)) [1]: 1

B1: PrgK_(SLT-CHAP) (residues 530-871) (domain or fragment)
chain: LLGSADFSPGASVEKRAQAVYDYLSKKGYTKEGISAILGNFSVESGINPKRAEGDYLNPPVGAHGNSWDEPSWLSMGGPQIYGGRFPNILHRGLGLGQWTDTADGGRRHTLLLDYAKGKNKKWYDLQLQLDFIFDGDAPGSRTAADNVARSKVAATIPELTTYFLTVWEGNPGDKLGERIQAAQNWFTFFSRSGTPIGGSGSEVFAQYKEKMQPLPTDRETKAGQGWPGNAYAPGNCTWYVFNRFAQLGKSIHPTMGNANQWVHNYSQTPGATLESAPKKGDAVIFTNGVAGSSTQYGHVAYVEHVNSDGSFVISEMNVSGEYSMNWRVLKKEAGEYFMRLN
binding result (non-reducing SDS-PAGE): binds

B2: PrgK_(CHAP) (residues 723-871) (domain or fragment)
chain: GTPIGGSGSEVFAQYKEKMQPLPTDRETKAGQGWPGNAYAPGNCTWYVFNRFAQLGKSIHPTMGNANQWVHNYSQTPGATLESAPKKGDAVIFTNGVAGSSTQYGHVAYVEHVNSDGSFVISEMNVSGEYSMNWRVLKKEAGEYFMRLN
notes: also called CHAP domain; source: E. coli BL21(DE3), purified (IMAC fractions)
binding result (non-reducing SDS-PAGE): binds

B3: PrgKEC, extracytoplasmic region of PrgK (residues 273-871) (domain or fragment)
chain: ASSTQKPAIVQEEEDLTASWTYFTKLDAQHTDDNNLFYSNIDEVLFYMNYRYDDFKLLDMDSTGTKNFETILSELWTALNGKKPDYQLKTMQSLETDKKSSYFIEEEQAKHYQEIKKELGYQTLDDLLSFPVKTDALIVNKRYGYDKSKEKLTLYQGIDVLIEDNQPFHSPMNGQIVSVPDTETLVIEKEKVARLTIRGVNTLRLTKGMDVEEGTFLGNTKNSTVTFQYEKYKKETKDWFFVNPAFYFPRVTYTQTTLLGSADFSPGASVEKRAQAVYDYLSKKGYTKEGISAILGNFSVESGINPKRAEGDYLNPPVGAHGNSWDEPSWLSMGGPQIYGGRFPNILHRGLGLGQWTDTADGGRRHTLLLDYAKGKNKKWYDLQLQLDFIFDGDAPGSRTAADNVARSKVAATIPELTTYFLTVWEGNPGDKLGERIQAAQNWFTFFSRSGTPIGGSGSEVFAQYKEKMQPLPTDRETKAGQGWPGNAYAPGNCTWYVFNRFAQLGKSIHPTMGNANQWVHNYSQTPGATLESAPKKGDAVIFTNGVAGSSTQYGHVAYVEHVNSDGSFVISEMNVSGEYSMNWRVLKKEAGEYFMRLN
notes: also called PrgKEC wild type; extracellular domain of PrgK; source: E. coli BL21(DE3), purified (Ni-NTA, PreScission elution, Superdex-200 SEC)
stoichiometry N [2]: 2 chains in the oligomer (dimer)
